From patent US20030036642 come the findings set out here.

In this series the target is PDGF-AB (A-chain/B-chain heterodimer) (Homo sapiens) (UniProt P04085+P01127). In words: filter.
Chain of PDGF-AB (A-chain/B-chain heterodimer) (Homo sapiens) (P01127 82-190, chain 2 of 2, other chains not shown): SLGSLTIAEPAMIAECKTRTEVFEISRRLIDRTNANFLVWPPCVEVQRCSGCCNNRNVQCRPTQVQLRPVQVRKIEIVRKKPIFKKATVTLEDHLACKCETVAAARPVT

For “ATCCGCCTGATTAGCGATACTNNNNNNNNNNNNNNNNNNNNNNNNNNNNNNNNNNNNNNNNACTTGAGCAAAATCACCTGCAGGGG [round 12 affinity-enriched ssDNA pool]”, the Kd (after 12 rounds, apparent Kd) is 0.05 nM.

The sequence “ATCCGCCTGATTAGCGATACTNNNNNNNNNNNNNNNNNNNNNNNNNNNNNNNNNNNNNNNNACTTGAGCAAAATCACCTGCAGGGG [starting random ssDNA pool]” gave a binding signal (fold lower affinity than round 12 pool) of 700.

Under “2'-F all C,U, random 2'-F-pyrimidine RNA, method inferred”, “GGGAGACAAGAAUAACGCUCAANNNNNNNNNNNNNNNNNNNNNNNNNNNNNNNNNNNNNNNNNNNNNNNNNNUUCGACAGGAGGCUCACAACAGGC [starting random 2'-F-pyrimidine RNA pool]” registered a Kd of 35 nM.
